Data on 41 sequences can be found in the nanobody polyreactivity screen of Harvey et al. (2022).

This series in a line: yeast display, Sf9 membrane polyspecificity reagent, FACS + sequencing; frameworks hold sequencing errors. The procedure, abridged: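 A nanobody's polyreactivity label depends on the gate it was sorted from. Yeast display cells were stained with 10% biotinylated, detergent-solubilized Sf9 membrane reagent for 1 hour at 4 °C, enriched on streptavidin microbeads and sorted by FACS. The low and high (top ~1%) gates were set on anti-HA fluorescence for expression and streptavidin fluorescence for reagent binding.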
With “QVQLVESGGGLVQAGGSLRLSCAASGSNFNIKAIGWYRQAPGKERELVATIPSGGTTSSADSVNGRFTISRDNAKNTVYLQMNSLKPEDTAVYYCYAEIYPIVKAGRHHRRRYDYWGQATQVTVSS”, the “polyreactivity (PSR sort gate)” value is “low polyreactivity”. Consider “QVQLVESGGGLVQAGGSLRLSCAASGSNFNNNAMGWYRQAPGKERELVASISLSAGSTYYADSVKGRFTISRDNAKNTVYLQMNSLKPEDTAVYYCAAEVGYWGYQISGDYWGQGTQVTVSS”, for which the “polyreactivity (PSR sort gate)” value is on record as “low polyreactivity”. As for “QVQLVESGGGLVQAGGSLRLSCAASGSNFNYNDMGWSRQAPGKERELVAAIDSSGTSTYYADSVKGRFTISRDNAKNTVYLQMNSLKPEDTAVYYCNADSSLGFGYWGQGTQVTVSS”, the “polyreactivity (PSR sort gate)” value is on record as “low polyreactivity”. As for “QVQLVESGGGLVQAGGSLRLSCAASGSNFQRYTMGWYSQAPGKERELVAAITSRSGRTYYADSVKGRFTISRDNAKNTVYLQMNSLKPEDTAVYYCATVPYDQTRGYKYDYWGQGTQVTVSS”, the entry is “high polyreactivity”; as for “QVQLVESGGGLVQAGGSLRLSCAASGSNFQVYAMGWYRQAPGKERELVATIRRTGGSTYYADSVKGRFTISRDNAKNTVYLQMNSLKPEDTAVYYCAARTYGGYVLRLDYWGQGTQVTVSS”, “high polyreactivity”.

In the case of “QVQLVESGGGLVQAGGSLRLSCAASGSNFRNNAMGWYRQAPGKERELVASISSSGDSTYADSVKGRFTISRDNAMITVYLQMNSLKPEDTAVYYCARDYLSPYAVDYWGQGTQVTVSS”, the “polyreactivity (PSR sort gate)” value is given as “low polyreactivity”. As for “QVQLVESGGGLVQAGGSLRLSCAASGSNFRPYAMGWYRPAPGKERELVAAISYRGGSTYYADSVKGRFTISRDNAKNTVYLQMNSLKPEDTAVYYCAADSREEGDYWGQGTQVTVSS”, the entry is “low polyreactivity”; as for “QVQLVESGGGLVQAGGSLRLSCAASGSNFRRNAMGWYRQAPGKERELVAAISSNGGSTYYADSVKGRFTISRDNAKNTVYLQLNSLKPEDSAVYYCNALGRVRYSPRYGYDYWGQGTQVTVSS”, “high polyreactivity”. Take “QVQLVESGGGLVQAGGSLRLSCAASGSNFRVYAMGWYRQAPGKERELVAAISSSGVRTSYADSVKGRFTISRDIAKNTVYLQMNSLKPEDTSVYYCADRYPYGYYHWGQGTQVTVSS”: the “polyreactivity (PSR sort gate)” value was “high polyreactivity”. Then “QVQLVESGGGLVQAGGSLRLSCAASGSNFRYNTMGSYRQAPGKERELVAAITQSGDNTYYADSVKGRFTISRDNAKNTVYLQMNSLKPEDTAVYYCAASGARSDGWTSYDYWGQGTQVTVSS”, with “low polyreactivity”; and “QVQLVESGGGLVQAGGSLRLSCAASGSNFRYYAMGWYRQAPGKERELFAAISSNGGSTSYADSVKGRFTISRDNAKNTVYLQMNSLKPEDTAVYYCAATRRWYPTKLYGYWGQGTQVTVSS”, with “high polyreactivity”; and “QVQLVESGGGLVQAGGSLRLSCAASGSNFSHYAMGWYRQAPGKESELVAAISSGDSTNYADSVKGRFTISRDNAKNTVYLQMSSVKPEDTAVYYCAKTRRRLLTRYDYWGQGTQVSVSS”, with “low polyreactivity”. As for “QVQLVESGGGLVQAGGSLRLSCAASGSNFSYTMGWYRQAPGKERELVAAITSGGITYYADSVKRRFTISRDNAKNTVYLQMNCLKPEDTAVYYCNAYYPYGLASFYYWGQGTQVTVSS”, the entry is “low polyreactivity”.

Turning to “QVQLVESGGGLVQAGGSLRLSCAASGSNFVVNAMGWYRQAPGKERELVAAITQSGGSTFYADSVKGRFTISRDNAKNTVYLLMNSLKPEDSAVYYWGQGTQVTVSS”, the “polyreactivity (PSR sort gate)” value is listed as “low polyreactivity”. Take “QVQLVESGGGLVQAGGSLRLSCAASGSNFVYNAMGRNRQAPGKERELVAAISSGGRTNYADSVKGRFTISRDNANNTVYLQMNSLKPEDTAVYYCADEGLLWWSGYYYWGQGTQVTVYS”: the “polyreactivity (PSR sort gate)” value is listed as “high polyreactivity”. As for “QVQLVESGGGLVQAGGSLRLSCAASGSNFWAYTMGWYRQAPGKERELVAVITDSTGSTYYADSVKGRFTISRDNAMNTVFLQMNSLKPEDTAVYYCAARLWIGYLKYDYWGQGTQVTVSS”, the entry is “high polyreactivity”. With “QVQLVESGGGLVQAGGSLRLSCAASGSNFWLYAMGWYRQAPGKERELVAAIRSGDRTNYADSVKGRFTISRDNAKNTVYLQMNSLKPEDTAVYYCAAVAYLNWTPHYYWGQGTQVTVSS”, the “polyreactivity (PSR sort gate)” value was “low polyreactivity”. On to “QVQLVESGGGLVQAGGSLRLSCAASGSNFYIYAMGRYRQAPGKERELVAAISYSGGRTTYADSVKGRFTISRDYAKNTVYLQMNSLKPEDTAVYYCAAGFSYYGLAVAPYRSWGRYYNWGQGTQVTVSS”, for which the “polyreactivity (PSR sort gate)” value is “high polyreactivity”. On to “QVQLVESGGGLVQAGGSLRLSCAASGSNFYNNVMGWYRQAPGKERELVAAINSGGRTYYADSVKGRFTISRDNAKNTVYLQMNSLKPEDTAVYYCAVGYGRAARMDYWGQGTQVTVSS”, for which the “polyreactivity (PSR sort gate)” value is listed as “high polyreactivity”. As for “QVQLVESGGGLVQAGGSLRLSCAASGSNFYPYAMGWYRQAPGKERELVAGITGGGRTYYADSVKGRFTISRDNAKNTVYLQMNSLKPEDTAVYYCAAVDYVSYYIPFHYEYYWGQGTQVTVSS”, the entry is “low polyreactivity”; as for “QVQLVESGGGLVQAGGSLRLSCAASGSNFYVYAMGWYRQAPGKERELVAAIRWSGGSTYYADSVKGRFTISRDNANYPVYLQMNSLKPEDTADYYCAADAHPDSVWYGEYDYWGQGTQLTVSS”, “low polyreactivity”; as for “QVQLVESGGGLVQAGGSLRLSCAASGSNLYPYAMGWYRQAPGKERELVAAISRGGSTNYADSVKGRYTIARDNAKNTVYLQMNSLKPDDTAVYYCATAYTRFSQRYEYYVIYWQNDYWGQGTQVTVSS”, “low polyreactivity”. In the case of “QVQLVESGGGLVQAGGSLRLSCAASGSNSVYNAMGWYRQAPGKERELVAAISWSGGRTSYADSVKGRFTISRDNAKNTVYLQMNSLKPEDTAVYYCAADELTVLWDEDYWGQGTQVTVSS”, the “polyreactivity (PSR sort gate)” value is given as “low polyreactivity”. As for “QVQLVESGGGLVQAGGSLRLSCAASGSNYTYYAMGWYRQAPGKERQLVAAIRSSGSTYYADSVKGRFTISRDNAKNTVYLQMNSLKPEDTAVYYCAAKARRLNASSYDYWGQGTQVTVSS”, the entry is “high polyreactivity”; as for “QVQLVESGGGLVQAGGSLRLSCAASGSPFFVYAMGWYRQAPGTERELVAAISSRGSTYYADSVKGRFTIARDTAKNTVYLQMNSLKPEDTAVYYCAAEYTVSYLRMDYWGQGTQVTVSS”, “low polyreactivity”. With “QVQLVESGGGLVQAGGSLRLSCAASGSPFRGNAMGWYRQAPGKEREFVAAITVSCGSTYYADSVKGRFTISRDNAKNNVYLQMKSLNPEDTAVYYCAARYLRYSSKTIQNEDYWGQGTQVTVSS”, the “polyreactivity (PSR sort gate)” value is “high polyreactivity”. For the sequence “QVQLVESGGGLVQAGGSLRLSCAASGSPFYGYGMGWYRQAPVKERELVAASTRSGGSTYYADSVKGRFTRSRDNAKNTVYVQKNSLKPEDTEVYYCNKSGYKGGVGYDYWGQGTQVTVSS”, the “polyreactivity (PSR sort gate)” value is “high polyreactivity”. As to “QVQLVESGGGLVQAGGSLRLSCAASGSRYSRNAMGWYRQAPGKERELVAASSYSSGSTYYADSVKGRFTISLDNAKNTVYLQMNSLIPEDTAVYYCAADTTKLQGVEGDYWGQGTQVTVSS”, the “polyreactivity (PSR sort gate)” value is reported as “low polyreactivity”. Take “QVQLVESGGGLVQAGGSLRLSCAASGSSFYDNAMGWYRQAPGKERELVAGIRSTGRTYYADSVKGRFTISRDNAKNTVYLQMNSLKPEDTAVYYCAAYVGTYGEYDYWGQGTQVTVSS”: the “polyreactivity (PSR sort gate)” value is given as “low polyreactivity”. As for “QVQLVESGGGLVQAGGSLRLSCAASGSSFYDYAMVWYRQAPGKERELVAAINGNGDSTYYADSVKGRFTISRDNAKYTVYLQMNSLKPEDNAVYYCAAYLGWGYDYWGQGTQVTVSS”, the entry is “low polyreactivity”; as for “QVQLVESGGGLVQAGGSLRLSCAASGSSFYSNAMGWYRQAPGKERELVAAISSSGGSTYYADSVKGRFTISRDNAKNTVYLQMNSLKPEDTAVYYCAAYSYYPPYDYWGQGTQVTVSS”, “high polyreactivity”. “QVQLVESGGGLVQAGGSLRLSCAASGSSGYFYALGWSRPAPGKERELVADMDWSGDSTYYADSVKGRFTISRDNAKTTVYLQMNSLKPEDTAVYYCNAAYDYYSPSYTYDYWGQGTQVTVSS”: the “polyreactivity (PSR sort gate)” value is on record as “low polyreactivity”. As for “QVQLVESGGGLVQAGGSLRLSCAASGSSTLMLMGWYRQAPGKERELVAVITSSGGRTYYADSVKGRFTISRDNAKNTVYLQMNSLKPEDTAVYYCNVDIGVYAYESDYWGQGTQVTVSS”, the entry is “low polyreactivity”; as for “QVQLVESGGGLVQAGGSLRLSCAASGSTCRGYAMGWYRQAPGKEREFVAAISRRGGTTYYADSVKGRFTISRDNAKNTVYLQMNSLKQEDTAVYYCNKVYYQHYLAFDYWGQGTQVTVSS”, “high polyreactivity”. As for “QVQLVESGGGLVQAGGSLRLSCAASGSTFAANAMGWSRPAPGKERELVAAITSSGGSTYYADSVKGRFTISRDYAKNTVYLQMNSLKPEDTAVYYCNKDIERYVRIYDSWGQGTQVTVSS”, the “polyreactivity (PSR sort gate)” value is listed as “low polyreactivity”. Then “QVQLVESGGGLVQAGGSLRLSCAASGSTFACNAMGWDRQAPGKERELVAAISWSGGSTYYADSVKGRFTISRDNAKNTVYLQMNSLKPEDTAVYYCAARRYASRTGYLYDFWGQGTQVTVSS”, with “high polyreactivity”; and “QVQLVESGGGLVQAGGSLRLSCAASGSTFADNAMGWYSQARGKAGEFVAGISTNGGSTYYADSVKGRFTISRDNAKNTVYLQMNSLKPEDTAVYYCSAVNYYDQYGDYYWGQGTQVTVSS”, with “low polyreactivity”. Consider “QVQLVESGGGLVQAGGSLRLSCAASGSTFADYAMGWYRQAPGKERELVAAITQSGGSTSYADSVKGRFTISRDNAKNTVYLQMNSLKPEDTAVYYCNVDDSTWIGAYRRYDYWGQGTQVTVSS”, for which the “polyreactivity (PSR sort gate)” value is on record as “low polyreactivity”. Then “QVQLVESGGGLVQAGGSLRLSCAASGSTFADYAMGWYRQAPGKERELVAAITSSGGSTYYADSVKGRFTISRDNAKYTVYLQMKSLKAAETAGYYCNARVPRLLFVRFYGMDYWGQGNQVTVSS”, with “low polyreactivity”.

On to “QVQLVESGGGLVQAGGSLRLSCAASGSTFAFYDMGWYRQAPGKERELVAIIDWSGGRTYYADSVKGRFTISRDNAKNTVYLQMNSLKPEDTAVYYCNAENTYLGSRYRPYNYWGQGTQVTVSS”, for which the “polyreactivity (PSR sort gate)” value is on record as “low polyreactivity”. Turning to “QVQLVESGGGLVQAGGSLRLSCAASGSTFAGNAIGWYRQAPGKERELVAAIDSSTGSTYYADSVKGRFTISRDNAKNTVFLQMNSLKPEDTAVYYCNKTSFLVNLDYWGQGTQVTVSS”, the “polyreactivity (PSR sort gate)” value is recorded as “low polyreactivity”.
